In assay [1] the target is BhuU, transmembrane permease subunit (TMD) of the haem importer BhuUV (Burkholderia cenocepacia). Nature of the assay: crystal structure; BhuUV without BhuT, nucleotide-free; 30% PEG 400, 0.1 M NaCl, 0.1 M Li2SO4, 0.1 M Tris-HCl pH 8.5, 4 °C; 2.8 Å.
Assay [2] has the same target. Nature of the assay: crystal structure; BhuUV-T complex, nucleotide-free and haem-free, in n-nonyl-beta-D-glucopyranoside; crystallised at 20 °C, 15% PEG 2000, 0.1 M HEPES pH 7.6; 3.2 Å.
In assay [3] the target is BhuUV haem importer complex (two BhuU and two BhuV) (Burkholderia cenocepacia).
The target of assay [4] is BhuV, nucleotide-binding ATPase subunit (NBD) of the haem importer BhuUV (Burkholderia cenocepacia). The experiment in a line: crystal structure; BhuUV without BhuT, nucleotide-free; 30% PEG 400, 0.1 M NaCl, 0.1 M Li2SO4, 0.1 M Tris-HCl pH 8.5, 4 °C; 2.8 Å.
For assay [5] the target is unchanged. The experiment in a line: crystal structure; BhuUV-T complex, nucleotide-free and haem-free, in n-nonyl-beta-D-glucopyranoside; crystallised at 20 °C, 15% PEG 2000, 0.1 M HEPES pH 7.6; 3.2 Å.

In general, stoichiometry N refers to a count of units in the complex or per binding partner. Turning to “BhuU, transmembrane permease subunit (TMD) of the haem importer BhuUV (natural protein)”, the stoichiometry N in assay [1] and in assay [2] was 2 in each case.

In assay [3], “BhuT, periplasmic haem-binding protein (PBP), residues 40-311 (domain or fragment)” gave an ATPase activity (Vmax) of BhuUV in detergent solution on addition of haem-free BhuT (Vmax 5.0 to 7.1 μmol min^−1 mg^−1) of 1.4 fold and an ATPase activity of BhuUV reconstituted in liposomes, with BhuT of 1.4 fold.

On to “BhuV, nucleotide-binding ATPase subunit (NBD) of the haem importer BhuUV (natural protein)”, for which the stoichiometry N in assay [4] and in assay [5] was 2 in each case.
